In this series the target is PgMYB2 (TF fusion) (Panax ginseng, UniProt A0A1Z1CH15 1-280). Briefly: EMSA; LightShift Chemiluminescent EMSA kit protocol, room temperature, 20 min, native PAGE; protein stored in 20 mM Tris-HCl pH 7.2; binding buffer not stated. Particulars: protein: recombinant; tags: N-terminal trigger factor (TF) + 6xHis (pCold/TF); label: biotin; blunt.
Chain of PgMYB2 (TF fusion) (A0A1Z1CH15 entry or part of it): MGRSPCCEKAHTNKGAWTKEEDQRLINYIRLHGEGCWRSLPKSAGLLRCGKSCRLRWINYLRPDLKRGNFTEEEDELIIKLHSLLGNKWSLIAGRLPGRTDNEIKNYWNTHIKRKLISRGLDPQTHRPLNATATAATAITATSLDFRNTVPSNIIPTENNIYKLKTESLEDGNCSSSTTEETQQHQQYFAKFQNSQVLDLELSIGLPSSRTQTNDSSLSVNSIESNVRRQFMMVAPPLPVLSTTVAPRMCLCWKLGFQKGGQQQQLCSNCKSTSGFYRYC

B1: MBSII probe (dsDNA)
DNA 1: GACTGGCATTGATTTAAAAGGCGGT
DNA 2: ACCGCCTTTTAAATCAATGCCAGTC
As to B1, the binding result is on record as “binds”.

Source of the values: paper PMC6539309, “PgMYB2, a MeJA-Responsive Transcription Factor, Positively Regulates the Dammarenediol Synthase Gene Expression in Panax Ginseng”.
